From article PMC10092738, “Structural insights into the mechanism of adaptive ribosomal modification by Pseudomonas RimK” (Proteins, 2022)

Key:
[1] = biological target: P. syringae pv. tomato DC3000 RimK (P. syringae pv. tomato DC3000) (UniProt Q88AZ9)
RimKPS = biological target: T1, RimKPS (Pseudomonas syringae group genomosp. 3, UniProt Q88AZ9); assay: PK/LDH-coupled ATPase assay, NADH oxidation at […] nm; format: biochemical; conditions: activator; 25 uM cdG, 1.5 uM RimK, ATP as substrate; pH 9.0, 20 mM MgSO4, 25 C
T1 construct: gene rimK; full ORF in pET29a, C-terminal hexahistidine tag, E. coli BL21 (DE3) pLysS; tetramer
T1 sequence (Q88AZ9 1-301): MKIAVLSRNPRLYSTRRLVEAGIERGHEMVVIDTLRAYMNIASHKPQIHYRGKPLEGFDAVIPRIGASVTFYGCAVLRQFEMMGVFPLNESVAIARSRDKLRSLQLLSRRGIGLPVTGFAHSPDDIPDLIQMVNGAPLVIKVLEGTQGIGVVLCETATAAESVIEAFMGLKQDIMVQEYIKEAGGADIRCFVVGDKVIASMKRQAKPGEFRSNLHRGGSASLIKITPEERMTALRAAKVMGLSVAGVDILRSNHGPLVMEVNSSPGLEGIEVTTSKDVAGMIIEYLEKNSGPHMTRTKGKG

RimKPA [2] = biological target: T2, RimKPA (Pseudomonas aeruginosa, UniProt Q9HTZ2); assay: as above; format: biochemical; conditions: activator; 25 uM cdG, 2.5 uM RimK, ATP as substrate; pH 9.0, 20 mM MgSO4, 25 C
T2 construct: gene rimK; full ORF in pET29a, C-terminal hexahistidine tag, E. coli BL21 (DE3) pLysS; tetramer
T2 sequence (Q9HTZ2 1-301): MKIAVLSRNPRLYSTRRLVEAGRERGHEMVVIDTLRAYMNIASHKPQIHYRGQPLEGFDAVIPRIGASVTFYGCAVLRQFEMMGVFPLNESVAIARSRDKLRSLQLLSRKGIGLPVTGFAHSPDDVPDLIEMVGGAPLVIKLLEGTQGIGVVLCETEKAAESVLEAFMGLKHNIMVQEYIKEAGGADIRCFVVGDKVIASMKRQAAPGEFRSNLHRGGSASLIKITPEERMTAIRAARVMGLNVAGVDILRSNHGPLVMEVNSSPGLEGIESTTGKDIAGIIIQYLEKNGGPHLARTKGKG

RimKPA [3] = biological target: T2, RimKPA; assay: X-ray crystal structure, […] A; conditions: ATP binding site; co-purified from expression host; weak density, interpreted as ADP
[4] = biological target: P. aeruginosa PAO1 RimK (P. aeruginosa PAO1) (UniProt B7V3U4); assay: crystal structure; RimKPA at 17 mg/ml, sitting-drop vapor diffusion at 293 K, 0.2 M potassium sodium tartrate, 0.1 M bis-tris propane pH 7.5, 20% PEG 3350; 2.4 Å, P2(1), eight copies in the asymmetric unit
purified protein [5] = substrate: Nc1ncnc2c1ncn2[C@@H]1O[C@H](COP(=O)(O)OP(=O)(O)OP(=O)(O)O)[C@@H](O)[C@H]1O; assay: purified protein; conditions: 100 mM Tris-HCl pH 9.0, 20 mM MgSO4, 25 C, 1.5 uM RimK, no RimB
[6] = biological target: the molecule itself; assay: crystal structure; RimKPS at 3.7 mg/ml, sitting-drop vapor diffusion at 293 K, 0.2 M calcium chloride, 0.1 M HEPES pH 7.0, 20% PEG6000; ATP and cdG in the cryoprotectant; 2.9 Å, P1, 16 copies in the asymmetric unit
purified protein [7] = substrate: Nc1ncnc2c1ncn2[C@@H]1O[C@H](COP(=O)(O)OP(=O)(O)OP(=O)(O)O)[C@@H](O)[C@H]1O; assay: purified protein; format: biochemical, Pseudomonas fluorescens; conditions: 100 mM Tris-HCl pH 9.0, 20 mM MgSO4, 25 C, 1.5 uM RimK, no RimB

RimB of P. syringae (enzyme) showed a RimKPS ATPase activity (linked PK/LDH assay) against RimBPS 0–1.2 mM, fitted K m [1] of 120 µM and a RimKPS ATPase activity (linked PK/LDH assay) against RimBPS 0–1.2 mM, fitted V max [1] of 692.

In the case of `Nc1nc2c(ncn2[C@@H]2O[C@@H]3COP(=O)(O)O[C@H]4[C@@H](O)[C@H](n5cnc6c(=O)[nH]c(N)nc65)O[C@@H]4COP(=O)(O)O[C@H]3[C@H]2O)c(=O)[nH]1` [cyclic-di-GMP], the “PK/LDH-coupled ATPase assay, NADH oxidation at 340 nm” value (RimKPS) is reported as “the addition of cdG stimulated ATPase activity for both proteins” and the “PK/LDH-coupled ATPase assay, NADH oxidation at 340 nm” value (RimKPA [2]) is reported as “the addition of cdG stimulated ATPase activity for both proteins”.

With `Nc1ncnc2c1ncn2[C@@H]1O[C@H](COP(=O)(O)OP(=O)(O)O)[C@@H](O)[C@H]1O` [ADP] the “X-ray crystal structure, 2.4 A” value (RimKPA [3]) was “ADP and glutamate, of presumed cellular origin, were resolved in the RimKPA structure”.

For “P. aeruginosa PAO1 RimK (from UniProt B7V3U4 1-301) (enzyme)”, the stoichiometry N [4] was 4.

B1: P. syringae pv. tomato DC3000 RimK (enzyme, UniProt Q88AZ9 1-301, looked up)
chain: T1 sequence (Q88AZ9 1-301)
notes: RimK, ATP-dependent glutamate ligase, P. syringae pv. tomato DC3000; open reading frame of rimK cloned into pET29a; Tetramer in the crystal; 16 copies in the asymmetric unit; also called RimKPS; RimKPs; source: E. coli BL21 (DE3) pLysS, purified (His-Trap Excel column)
In the case of B1, the Km (purified protein [5]; a separate series in Figure S1 prints K m = 1.85 mM) is reported as 1000 µM and the “stoichiometry N” value [6] is reported as 4.

B2: RimKPF (Pseudomonas [fluorescens] SBW25) (protein)
chain: MKIAVLSRNPRLYSTRRLVEAGVERGHEMVVIDTLRAYMNIASHKPQIHYRGKPLEGFDAVIPRIGASVTFYGCAVLRQFEMMGVFPLNESVAIARSRDKLRSLQLLSRRGIGLPVTGFAHSPDDIPDLIDMVNGAPLVIKVLEGTQGIGVVLCETATAAESVIEAFMGLKQNIMVQEYIKEAGGADIRCFVVGDKVIAAMKRQAKPGEFRSNLHRGGSASLIKITPEERMTALRAAKVMGLSVAGVDILRSNHGPLVMEVNSSPGLEGIETTTGKNVAGIIIEHLEKNGGPNMTRTKGKG
notes: purified recombinant RimK
B2 gave a Km (purified protein [7]) of 800 µM.

B3: RimKPA (Pseudomonas aeruginosa PAO1) (protein)
chain: T2 sequence (Q9HTZ2 1-301)
Work on B3 yielded a Km (purified protein [5]; a separate series in Figure S1 prints K m = 2.1 mM) of 300 µM.
